Experimental data: publication PMC8857485, “Prostate secretory protein 94 inhibits sterol binding and export by the mammalian CAP protein CRISP2 in a calcium-sensitive manner” (The Journal of Biological Chemistry, 2022)
Where two headings read alike, the source gives them in different places.

Assays:
cholesterol sulfate = experiment: microscale thermophoresis; settings: measurements in triplicates
[1] = target: T1, prostate secretory protein of 94 amino acids (PSP94), C-terminal polyhistidine tag (human, UniProt P08118 21-114); experiment: MST
T1 chain: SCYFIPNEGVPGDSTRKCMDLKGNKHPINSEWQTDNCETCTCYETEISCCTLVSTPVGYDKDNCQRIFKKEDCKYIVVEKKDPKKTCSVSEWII

[2] = target: T1, prostate secretory protein of 94 amino …; experiment: MST
[3] = tested on: sterol export by CAP proteins (Pry1, CRISP2, CRISP3); experiment: In vivo sterol export assay ([14C]cholesteryl acetate export) in yeast; type: cell-based, Saccharomyces cerevisiae; settings: co-expression with CRISP2 in quadruple mutant yeast
Description: To test whether expression of PSP94 would affect the function of Pry1 in sterol export, we expressed PSP94 fused to the N-terminal signal sequence from Pry1 (amino acids 1–19) from a constitutive alcohol dehydrogenase promoter (ADH1) to direct the protein into the yeast secretory pathway. This PSP94-containing plasmid was then transformed into heme-deficient yeast cells lacking the sterol deacetylase Say1 (hem1Δ say1Δ). This strain is able to take up radiolabeled [^14C]cholesterol, acetylate it in an alcohol acetyltransferase 2 (Atf2)-dependent pathway, and secrete the resulting radiolabeled cholesteryl acetate back into the culture medium ([29]). […] To test whether expression of PSP94 would affect the synthesis or secretion of Pry1, CRISP2, or CRISP3, we coexpressed FLAG-tagged PSP94 with hemagglutinin (HA)-tagged Pry1, CRISP2, or CRISP3, separated yeast cells from the culture medium, precipitated proteins from both fractions with trichloroacetic acid (TCA), and detected the tagged proteins by Western blotting.
The sterol export assay was performed as described ([29]). […] Extracted radiolabeled lipids were quantified by scintillation counting, and volumes corresponding to 10,000 cpm (counts per minute) were dried. […] TLC plates were then exposed to phosphorimager screens, and radiolabeled lipids were visualized and quantified using a phosphorimager. […]

[4] = cholesterol sulfate titrated (x axis Cholesterol sulfate [µM])

## CRISP2 (cysteine-rich secretory protein 2), C-terminal polyhistidine tag (from UniProt P16562) N97P; L98G
Cholesterol sulfate; [4]
  Kd: 3.8 µM

## CRISP2 (cysteine-rich secretory protein 2), C-terminal polyhistidine tag (from UniProt P16562) L98G; Y99P
Cholesterol sulfate; in the presence of PSP94
  Kd: 0.5 µM
Cholesterol sulfate; [4]
  Kd: 2.2 µM

## CRISP2 (cysteine-rich secretory protein 2), C-terminal polyhistidine tag (from UniProt P16562) N97P; Y99P
Cholesterol sulfate; [4]
  Kd: 2.7 µM

B1: CAP domain of Pry1 (Pry1^CAP), C-terminal polyhistidine tag (domain or fragment)
chain: SASSSDSDLSDFASSVLAEHNKKRALHKDTPALSWSDTLASYAQDYADNYDCSGTLTHSGGPYGENLALGYDGPAAVDAWYNEISNYDFSNPGFSSNTGHFTQVVWKSTTQVGCGIKTCGGAWGDYVICSYDPAGNYEGEYADNVEPLA
modifications: RED-tris-NTA fluorescent label on the His tag
[1]
  Kd: 63 nM

B2: CRISP2 N97P L98G (protein)
chain: KDPAFTALLTTQLQVQREIVNKHNELRKAVSPPASNMLKMEWSREVTTNAQRWANKCTLQHSDPEDRKTSTRCGEPGYMSSDPTSWSSAIQSWYDEILDFVYGVGPKSPNAVVGHYTQLVWYSTYQVGCGIAYCPNQDSLKYYYVCQYCPAGNNMNRKNTPYQQGTPCAGCPDDCDKGLCTNSCQYQDLLSNCDSLKNTAGCEHELLKEKCKATCLCENKIY
modifications: limits not printed: mature chain by convention (pelB secretion in E. coli, C-terminal His tag left out); residue numbers match the precursor
[2]
  Kd: 4 nM

B3: CRISP3 (cysteine-rich secretory protein 3), C-terminal polyhistidine tag (natural protein)
chain: NEDKDPAFTALLTTQTQVQREIVNKHNELRRAVSPPARNMLKMEWNKEAAANAQKWANQCNYRHSNPKDRMTSLKCGENLYMSSASSSWSQAIQSWFDEYNDFDFGVGPKTPNAVVGHYTQVVWYSSYLVGCGNAYCPNQKVLKYYYVCQYCPAGNWANRLYVPYEQGAPCASCPDNCDDGLCTNGCKYEDLYSNCKSLKLTLTCKHQLVRDSCKASCNCSNSIY
modifications: RED-tris-NTA fluorescent label on the His tag
[1]
  Kd: 46 nM

B4: PSP94^F24G: point mutant version of PSP94 (F24 corresponds to F4 in the processed protein), impaired binding to CRISP3 (protein)
chain: SCYGIPNEGVPGDSTRKCMDLKGNKHPINSEWQTDNCETCTCYETEISCCTLVSTPVGYDKDNCQRIFKKEDCKYIVVEKKDPKKTCSVSEWII
modifications: left off: polyhistidine, C-terminal, state not stated
[3]
  effect on sterol binding and export by CRISP2 in vivo: did not inhibit sterol binding and export
